Results: patent publication US20240117035A1 (published 2024)

Target: CD3 on CD3+ Jurkat cells (human, UniProt P07766 23-207)
Assay: FACS binding, Jurkat cells

Chain of CD3 on CD3+ Jurkat cells (P07766 23-207): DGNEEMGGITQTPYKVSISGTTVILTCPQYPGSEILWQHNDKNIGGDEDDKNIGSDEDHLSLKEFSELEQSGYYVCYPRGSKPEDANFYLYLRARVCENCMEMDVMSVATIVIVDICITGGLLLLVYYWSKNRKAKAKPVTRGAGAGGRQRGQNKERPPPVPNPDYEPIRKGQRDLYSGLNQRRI

B1: m-13/CD3-v2 (antibody)
chain 1: QLQLQQSGTELVRPGSSVKISCKASGYAFSNYWMNWVKQRPGQGLEWIGQIYPGNGDTKYNGNFKGKATLTADKSSSTAYMQLSSLTSEDSADYFCARYYRGNCFDYWGQGTTLTVSS
chain 2: DIVLTQSPSSLTVTAGEKVTMSCKSSQSLLNSGNQKNYLTWYQQKPGQPPKLLIYWASTRDSGVPARFTGSGSGTDFTLTINSVQAEDLAVYYCQNAYTYPLTFGAGTKLEIK
chain 3: EVQLVESGGGLVKPGGSLKLSCAASGFTFSTYAMNWVRQAPGKGLEWVARIRSKYNNYATTYADSVKDRFTISRDDSKNTAYLQMNNLRTEDTAVYYCVRHGNWGNSYISYWAYWGQGTTVTVSS
chain 4: not shown
  EC50: 26.5 nM
